# Results from the RNAGym collection of RNA variant scans (doi:10.1073/pnas.2313332121).
# B1: TPR t1 (parent)
# chain: GACCAAUCUGCCCUCAGAGCUCGAGAACAUCUUCGGAUGCAGAGGAGGCAGGCUUCGGUGGCGCGAUAGCGCCAACGUCCUCAACCUCCAAUGCAUCCCACCACAUGAUGAUGCCUGAAGAGCCUUGGUUUUUUG
# Variants of: B1
# Assay: polymerase ribozyme fitness, log enrichment relative to wild type (log ratio); higher = more active; in vitro selection for triplet polymerase activity
# Method in brief: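 The heterodimeric triplet polymerase ribozyme's subunits were each mutagenized into PCR-built libraries and transcribed. Every library was selected once, in triplicate, by annealing with a biotinylated primer, the partner subunit and triplets, incubating frozen at −7 °C, gel-excising extended constructs, capturing on streptavidin beads and running RT-PCR. Input and output libraries were Illumina-sequenced, with genotypes kept only at ≥10 input reads and ≥1 read per output. Fitness, from inverse-variance-weighted replicate averages, is the base-2 logarithm of genotype enrichment over wild-type enrichment.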
row,Variant,polymerase ribozyme fitness (log ratio)
1,GUCCAAUGUGCCCUCAGAGCUCGAGAACAUCUUCGGAUCCAGAGGAGGCAGGCUUCGGUGCCGCGAUAGCGCCAACGUUCUCAACCUCCAAUGCAUCCCAACACAUGAUGAUGCCUGAAGAGCCUUGGUUUUUUG,-4.35
2,GUCUAAUCUGCCCUCAGAGCUCGAGAACAUCUUCGGAUCCAGAUGAGGCAGGCUUCGGUGACGCGAUAGCGCCAACGUCCUCGACCUCUAAUGCAUCCCACCACAUGAUGAUGCCUGAAGUGCCUUGGUUUUUUG,-2.89
3,GUCCAAUAUGCCCUCAGAGCUCGAGAACAUCUUCGGAUGCAGAGGAGGCAGGCUUCGGUGGCGCGAUAGCGCCAACGUCCUCAACCUCCAAUGCAUCCCUCCACAUGAUGAUGCCUGAAGAGCCUUGGUUUUUUG,-1.86
4,GUCCAAUAUGCCCUCAGAGCUCGAGAACAUCUUCGGAUGCAGAGGAGGCAGGCUUCGGUGGCGCGAUAGCGCCUACGUCCUCAACCUCCAAUGCUUCCCACCACAUGAUAAUGCCUGAAGAGCCUUUGUCUUUUG,-3.91
5,GUCCAAUCUGCGCUCAGAGCUCGAGAACAUCUUCGGAUGCAGAGGAGGCAGGCUUCGGUGGCGCGAUAGCGCCAACGUCCUCAACCUCCAAUGCUUCCCACCACAUGAUGAUGCCUGAAGAGCCUUGGUUUUUUG,-2.91
6,GUCCAAUCUGCCCUCAGAGCUCGAGAUCAUCUUCGGAUGCAGAGGAGGCAGGCUUCGGUGGCGCGAUAGCGCCCACGUCCUCAACCACCAAUGCAUCCCACCACAUGAUGAAGCCUGAAGAGCCUUUGUUUUUUG,-2.94
7,GUCCAAUCUGCCCUCAGAGCUCGAGAACAUCUUCGGUUGCACAGGAGGCAGGCUUCGGUGGCGCGAUAGCGCCAACGUCCUCAACCUCCAAUCCAUCCCACCACAUGAUGAUGCCUGAAAAGGCUUGGUAUUUUG,-6.65
8,GUCCAAUCUGCCCUCAGAGCUCGAGAACAUCUUCGGAUGCAGCGGAGGCAGGCUUCGGAGGCGCGAUAGCGCCAACGUCCUCAACCUCCAAUGCAUCCCACCACAUGAUGAUGCCUGAAGAGCCUUGGUUUUUUG,-5.8
9,GUCCAAUUUGCCCUCAGAGCUCGAGAACAUCUUCGGAUGCAGAGAAGGCAGGCUUCGGUGGCGCGAUAGCGCCAACGUCCUCAACCUCCAAUGCGUCCCACCACAUGAUGAUGCCUGAAAAGCCUUGGUUUUUUG,-0.217
10,GUCCAAUCUGCCCUCAGAGCUCGAGAACAUCUUCGGAUGCAGUGGAGGCAGGGUUCGGUGGCGCGAUAGCGCUAACGUCCUCAACCUCCAAUGCAUCCCACCACAAGAUGAUGCCUGAAGAGCCUUGGUUUUUUG,-7.47
11,GUCCAAUCUGUCCUCAGAGCUCGAGAACAUCUUCGGAUGCAGAGGAGGCAGGCUUCGGUGGCUCGAUAGCGCCAACGUCCUCAACCUCCAAUGCAUCCCAGCACAUGAUGAUUCUUGAAGAGCCUUGGUUUUUUG,-6.67
12,GUCCAAUCUGCCCUCAGAGCUCGAGAGCAUCUUCGGAUGCAGAGGAGGCAGGCGUCGGUGGCGCGAUAGCGCCAACGUCCUCAACCUCCAAUGCAUCCCACCACAUGAUGAUGCCUGAAGAGUCUUGGUUUUUUG,-3.79
13,GUCCAAUCUGCCCUCAGAGCUCGAGAACAUCUUCGGAUGCAGAGGAGGCAGGCUUCGGUGGCGCGAUAGCGCCAACGUCCUCAACCUCCAAUGCAUCCCUCCACAUGAUGAUGCCUGAAGAGCCUUGGUUUUUUG,-3.18
14,GUCCAAUGUGCCCUCAGAGCUCGAGAACAUCUUCGUAUGCAGAGAAGGCAGGCUUCGGUGGCGCGAUAGCGCCAACGUCCUCAACCUCCAAUGCAUCCCACUACAUGAUGAUGCCUGAAAAGCCUUCGUUUUUUG,-4.41
15,GUCCAAUCUGCCCUCAGUGCUCGAGAACAUCUUCGGAUGCAGAGGAGGCAGGCUUCGGUGGCGCGAUAGCGCCAACGUCCUCAACCUCCAAUGCAUCCCACCACAUGAUGAUGCCUGAAGAGCAUUGGGUUUUUG,-2.31
16,GUCAAAUCUGCCUUCAGAGCUCGAGAACAUCUUCGGAUGCAGAGGAGGCAGGCUUCGGUGGCGCGAUAGCGCCAACGUCCUCAACCUCCAAUGCAUCCCACCACAUGAUGAUGCCUGAAGAGACUUGGUUUUUUG,1.02
17,GUCCAAUCUGCCCUCAGAGCUCGAGAACAUCUUCGGAUGCAGAGGAGGCCGGCUUUUGUGGUGCGAUAGCGCCAACGUCCUCAACCUCCAUUGCAUCCCACCACAUGAUGAUGCCUGAAGAGCGUUCCUUUUUUG,-4.5
18,GUCCAAUCUGCCCUCAGAGCUCGAGAACAUCUUCGGAUGCAGAGGAGGCCGGCUUUUGUGGCGCGAUAGCGCCAACGUCCUCAACCUCCAUUGCAUCCCACCACAUGAUGAUGCCUGAAGAGCGUUCCUUUUUUG,-4.54
19,GUCCAAUCUGCCCUCAGAGCUCGAGAGCAUCUUCGGAUGCAGAGGAGGCAGGCUUCGGUGACGCGAUAGCGCCAACGUCCUCAACCUCCAAUGCAUCCCACCAAAUGAUGACGCCUGAAGAUCCUUGGUUUUUUG,-2.93
20,GUCCAAUCUGUCCUCAGAGCUCGAGAACAUCUUCGGAUGCAGAGGAGGCAGGCUUCGGUGGCGCGAUAGCGCCAACGUACUCAACCUCCAAUGCAUCCCACCACAUGAUGAUGCCUGAAGAGACUUGGUUUUUUG,-0.946
21,GUCCAAUCUGCCCUCUGAGCUCGAGAACAUCUUCGGAUGCAGAGAAGGCAGGCUUCGGUGGCGCGAUAGCGCCAACGUCCUCAACCCCCAAUGCAUCCCACCACAUGAUGAUGCCUGAAGCGCCUUGGUUUUUUG,-2.88
